Assay [1] addresses Cynomolgus monkey PDGF-BB (cynomolgus monkey (Macaca fascicularis)). The assay is described as follows: SPR 25C, mAb captured on anti-hFc; analyte Monkey PDGF-BB homodimer (Kingfisher).
In assay [2] the target is human PDGF-BB (human) (UniProt P01127). As to the kind of experiment: blocking ELISA: 60 pM Biot-PDGF-BB on 1 ug/ml hPDGFRb-mmH; IC50 cell NB (Non-Blocker). Background: An ELISA detects its analyte on a solid surface through an enzyme-linked reagent.
Assay [3] shares this target. As to the kind of experiment: SPR 25C, mAb captured on anti-hFc; analyte Human PDGF-BB homodimer (R&D).
For assay [4], the target named is human PDGF-AB (human) (UniProt P04085). The assay is described as follows: cell-based or functional assay.
Assay [5] has as its target human PDGF-BB (human) (UniProt P01127). As to the kind of experiment: cell-based or functional assay.
For assay [6], the target named is human PDGF-AB (human) (UniProt P04085). As to the kind of experiment: blocking ELISA: 100 pM Biot-PDGF-AB on 1 ug/ml hPDGFRb-mmH; IC50 cell NB (Non-Blocker).
Assay [7] concerns the target human PDGFRβ on HEK293/SRE-luc/hPDGFRβ cells (human) (UniProt P09619). As to the kind of experiment: cell-based or functional assay.

Cynomolgus monkey PDGF-BB (cynomolgus monkey (Macaca fascicularis)), sequence (chain, as listed by the source): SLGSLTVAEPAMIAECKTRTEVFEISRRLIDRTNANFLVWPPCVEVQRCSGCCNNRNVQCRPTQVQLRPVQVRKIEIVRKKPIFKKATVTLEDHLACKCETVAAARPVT
human PDGFRβ on HEK293/SRE-luc/hPDGFRβ cells (human), sequence (P09619 33-1106): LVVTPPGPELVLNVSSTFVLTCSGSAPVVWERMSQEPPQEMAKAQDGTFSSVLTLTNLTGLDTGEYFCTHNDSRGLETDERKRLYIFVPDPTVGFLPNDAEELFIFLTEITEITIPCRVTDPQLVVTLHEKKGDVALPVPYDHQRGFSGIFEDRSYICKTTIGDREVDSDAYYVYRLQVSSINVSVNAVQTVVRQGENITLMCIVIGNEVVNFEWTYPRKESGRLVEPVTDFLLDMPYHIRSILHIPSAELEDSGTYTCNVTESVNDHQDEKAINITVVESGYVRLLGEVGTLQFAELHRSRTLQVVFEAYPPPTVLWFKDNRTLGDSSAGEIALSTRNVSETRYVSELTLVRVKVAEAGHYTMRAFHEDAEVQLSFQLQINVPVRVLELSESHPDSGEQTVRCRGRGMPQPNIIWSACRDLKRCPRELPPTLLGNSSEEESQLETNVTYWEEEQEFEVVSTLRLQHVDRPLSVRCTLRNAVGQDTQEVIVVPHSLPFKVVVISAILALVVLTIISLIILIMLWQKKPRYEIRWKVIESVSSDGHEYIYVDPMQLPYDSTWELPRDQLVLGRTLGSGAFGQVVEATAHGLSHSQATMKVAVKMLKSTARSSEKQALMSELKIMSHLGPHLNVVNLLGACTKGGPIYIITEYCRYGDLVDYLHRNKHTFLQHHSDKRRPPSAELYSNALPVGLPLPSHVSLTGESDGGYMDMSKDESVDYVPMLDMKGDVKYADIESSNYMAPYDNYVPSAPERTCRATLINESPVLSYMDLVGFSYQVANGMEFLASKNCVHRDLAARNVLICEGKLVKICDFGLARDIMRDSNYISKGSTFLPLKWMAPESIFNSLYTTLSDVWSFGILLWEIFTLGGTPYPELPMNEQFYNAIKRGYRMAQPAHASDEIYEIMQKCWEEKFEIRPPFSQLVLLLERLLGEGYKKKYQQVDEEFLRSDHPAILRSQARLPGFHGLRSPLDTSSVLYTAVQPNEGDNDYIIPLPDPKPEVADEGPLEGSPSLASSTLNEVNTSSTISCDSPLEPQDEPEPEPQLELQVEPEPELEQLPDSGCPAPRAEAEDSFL

Substance REGN1945 (antibody) came in with a 30nM mfPDGF-BB (KingFisher) Bound (RU) in assay [1] of 6.8 RU. For the same substance, the % blocking at 100 nM Ab in the assay with human PDGF-BB (human) [2] is -6%. The 30nM hPDGF-BB (R&D) Bound (RU) with human PDGF-BB (human) [3] came out at 6.7 RU. Also, in the assay with human PDGF-AB (human) [4], the A647 Intensity, internalization in NHLF, pre-blocking Ab: NA was 624000; the A647 Intensity, internalization in PASMC, pre-blocking Ab: NA amounted to 464000; the Fold Change vs REGN1945, internalization in NHLF, pre-blocking Ab: NA amounted to 1 fold; the Fold Change vs REGN1945, internalization in PASMC, pre-blocking Ab: NA came out at 1 fold. In the assay with human PDGF-BB (human) [5], the A647 Intensity, internalization in NHLF, pre-blocking Ab: NA is 573000; the A647 Intensity, internalization in PASMC, pre-blocking Ab: NA stood at 483000; the EC50 of subsequent PDGF-BB calcium flux in PASMC after 3 hr pre-treatment with antibody-PDGFBB (10:1 nM) came to 0.6 nM; the Fold Change vs REGN1945, internalization in NHLF, pre-blocking Ab: NA was found to be 1 fold. In the assay with human PDGF-BB (human) [5], the Fold Change vs REGN1945, internalization in PASMC, pre-blocking Ab: NA is 1 fold; the Max-Min at 5 nM PDGF-BB (RFU), PASMC after 3 hr pre-treatment with antibody-PDGFBB was 3950 RFU; the Max-Min at 5 nM PDGF-BB (RFU), PASMC after 24 hr pre-treatment with antibody-PDGFBB was 1460 RFU; the Max-Min at 5 nM PDGF-BB (RFU), PASMC after 48 h pre-treatment with antibody-PDGFBB was 492 RFU. In the assay with human PDGF-AB (human) [6], the % blocking at 100 nM Ab was determined as 21%.
In the case of isotype - mIgG (REGN 751) (antibody), the % blocking at 100 nM Ab was -5% with human PDGF-BB (human) [2] and 18% with human PDGF-AB (human) [6].
Turning to “human PDGF-AB (from UniProt P04085 87-211) (ligand)”, the EC50 of ligand, SRE-luciferase in HEK293/SRE-luc/hPDGFRβ cells in assay [7] worked out at 8.6 nM.

For the origin of these results see patent publication US20220242943A1.
